Source: patent publication US20250179183A1 (BIOMOLECULAR, published 2025)
Read-outs that look alike come from different tables or passages of the source.

Legend:
cynomolgus monkey CD32a [1] = biological target: cynomolgus monkey CD32a (cynomolgus monkey)
cynomolgus monkey CD64 [2] = biological target: T1, cynomolgus monkey CD64 (cynomolgus monkey, UniProt A0A2K5U901 33-309)
cynomolgus monkey CD32b [3] = biological target: cynomolgus monkey CD32b (cynomolgus monkey)
cynomolgus monkey CD32a [4] = biological target: cynomolgus monkey CD32a (cynomolgus monkey); remark: listed apart in the source
cynomolgus monkey CD64 [5] = biological target: T1, cynomolgus monkey CD64; remark: listed apart in the source
cynomolgus monkey CD32b [6] = biological target: cynomolgus monkey CD32b (cynomolgus monkey); remark: listed apart in the source

T1 sequence (A0A2K5U901 entry or part of it limits assumed, form in doubt): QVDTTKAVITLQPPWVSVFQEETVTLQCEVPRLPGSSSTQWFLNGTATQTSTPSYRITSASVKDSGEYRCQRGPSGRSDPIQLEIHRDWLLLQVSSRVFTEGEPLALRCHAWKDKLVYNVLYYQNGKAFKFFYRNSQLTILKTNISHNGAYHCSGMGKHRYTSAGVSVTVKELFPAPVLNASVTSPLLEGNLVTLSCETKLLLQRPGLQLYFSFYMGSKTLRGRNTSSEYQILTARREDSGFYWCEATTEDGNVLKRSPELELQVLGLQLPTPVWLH

B1: Tafasitamab (antibody, human IgG1, kappa)
heavy: EVQLVESGGGLVKPGGSLKLSCAASGYTFTSYVMHWVRQAPGKGLEWIGYINPYNDGTKYNEKFQGRVTISSDKSISTAYMELSSLRSEDTAMYYCARGTYYYGTRVFDYWGQGTLVTVSSASTKGPSVFPLAPSSKSTSGGTAALGCLVKDYFPEPVTVSWNSGALTSGVHTFPAVLQSSGLYSLSSVVTVPSSSLGTQTYICNVNHKPSNTKVDKKVEPKSCDKTHTCPPCPAPELLGGPDVFLFPPKPKDTLMISRTPEVTCVVVDVSHEDPEVQFNWYVDGVEVHNAKTKPREEQFNSTFRVVSVLTVVHQDWLNGKEYKCKVSNKALPAPEEKTISKTKGQPREPQVYTLPPSREEMTKNQVSLTCLVKGFYPSDIAVEWESNGQPENNYKTTPPMLDSDGSFFLYSKLTVDKSRWQQGNVFSCSVMHEALHNHYTQKSLSLSPG
light: DIVMTQSPATLSLSPGERATLSCRSSKSLQNVNGNTYLYWFQQKPGQSPQLLIYRMSNLNSGVPDRFSGSGSGTEFTLTISSLEPEDFAVYYCMQHLEYPITFGAGTKLEIKRTVAAPSVFIFPPSDEQLKSGTASVVCLLNNFYPREAKVQWKVDNALQSGNSQESVTEQDSKDSTYSLSSTLTLSKADYEKHKVYACEVTHQGLSSPVTKSFNRGEC
Kd (cynomolgus monkey CD32a [1]): 181 nM | Kd (cynomolgus monkey CD64 [2]): 1.8 nM | Kd (cynomolgus monkey CD32b [3]): 152 nM | Kd (cynomolgus monkey CD32a [4]): 76.2 nM | Kd (cynomolgus monkey CD64 [5]): < 0.02 nM | Kd (cynomolgus monkey CD32b [6]): 53 nM

B2: HB2198 (bispecific antibody, human IgG1, kappa)
heavy 1: QVQLVQSGGGVVQPGRSLRLSCAASGVSLPDYGVSWVRKAPGKGLEWVAVIWGSETTYYNSALKSRFTISRDNSKNTLYLQMSSLRAEDTAVYYCAKHYYYGGSFAMDYWGQGTLVTVSSASTKGPSVFPLAPSSKSTSGGTAALGCLVKDYFPEPVTVSWNSGALTSGVHTFPAVLQSSGLYSLESVVTVPSSSLGTQTYICNVNHKPSNTKVDKKVEPKSCTDWSPYADQSIKVRISLKSALGDKAYEWNDNEMYLFRSSVAYAMRQYFLKVKNQMILFGEEDVRVANLKPRISFNFFVTAPKNVSDIIPRTEVEKAIRMSRSRINDAFRLNDNSLEFLGIQPTLGPPNQPPVSTSTSPTRSMAPGAVHLPQPVSTRDKTHTCPPCPAPELLGGPDVFLFPPKPKDTLMISRTPEVTCVVVDVSHEDPEVKFNWYVDGVEVHNAKTKPREEQYNSTYRVVSVLTVLHQDWLNGKEYKCKVSNKALPAPEEKTISKAKGQPREPQVCTLPPSRDELTKNQVSLSCAVKGFYPSDIAVEWESNGQPENNYKTTPPVLDSDGSFFLVSKLTVDKSRWQQGNVFSCSVMHEALHNRFTQKSLSLSPG
heavy 2: QIVLSQSPAILSASPGEKVTMTCRASSSVSYIHWFQKKPGSSPKPWIYATSNLASGVPVRFSGSGSGTSYSLTISRVEAEDAATYYCQQWTSNPPTFGGGTKVEIKSSASTKGPSVFPLAPSSKSTSGGTAALGCLVKDYFPEPVTVSWNSGALTSGVHTFPAVLQSSGLYSLKSVVTVPSSSLGTQTYICNVNHKPSNTKVDKKVEPKSCDKTHTCPPCPAPELLGGPDVFLFPPKPKDTLMISRTPEVTCVVVDVSHEDPEVKFNWYVDGVEVHNAKTKPREEQYNSTYRVVSVLTVLHQDWLNGKEYKCKVSNKALPAPEEKTISKAKGQPREPQVYTLPPCRDELTKNQVSLWCLVKGFYPSDIAVEWESNGQPENNYKTTPPVLDSDGSFFLYSKLTVDKSRWQQGNVFSCSVMHEALHNHYTQKSLSLSPG
light 1: DIQMTQSPSSLSASVGDRVTITCRASQDISKYLNWYQEKPGKAIKLLIYHTSRLHSGVPSRFSGSGSGTDFTLTISSLQPEDFATYYCQQGATLPYTFGPGTKLEIKRTVAAPSVFIFPPSDEQLKSGTASVKCLLNNFYPREAKVQWKVDNALQSGNSQESVTEQDSKDSTYSLSSTLTLSKADYEKHKVYACEVTHQGLSSPVTKSFNRGEC
light 2: QVQLQQPGAELVKPGASVKMSCKASGYTFTSYNMHWVKETPGRGLEWIGAIYPGNGDTSYNQKFKGKATLTADKSSSTAYMQLSSLTSEDSAVYYCARSTYYGGDWYFNVWGAGTLVTVSSASVAAPSVFIFPPSDEQLKSGTASVECLLNNFYPREAKVQWKVDNALQSGNSQESVTEQDSKDSTYSLSSTLTLSKADYEKHKVYACEVTHQGLSSPVTKSFNRGEC
Kd (cynomolgus monkey CD32a [1]): 4 nM | Kd (cynomolgus monkey CD64 [2]): < 0.02 nM | Kd (cynomolgus monkey CD32b [3]): 3.4 nM | Kd (cynomolgus monkey CD32a [4]): 305 nM | Kd (cynomolgus monkey CD64 [5]): < 0.02 nM | Kd (cynomolgus monkey CD32b [6]): 218 nM

B3: Rituximab (antibody)
VH: not shown
VL: QIVLSQSPAILSASPGEKVTMTCRASSSVSYIHWFQQKPGSSPKPWIYATSNLASGVPVRFSGSGSGTSYSLTISRVEAEDAATYYCQQWTSNPPTFGGGTKLEIKRTVAAPSVFIFPPSDEQLKSGTASVVCLLNNFYPREAKVQWKVDNALQSGNSQESVTEQDSKDSTYSLSSTLTLSKADYEKHKVYACEVTHQGLSSPVTKSFNRGEC
Kd (cynomolgus monkey CD64 [5]): < 0.02 nM
